Measurements reported in paper PMC6550530.

What was measured:
[1] = target: T1, CsrA (Vibrio cholerae, UniProt Q9KUH3 1-65); assay: EMSA; CsrA up to 40 nM; LightShift chemiluminescent RNA EMSA kit per manufacturer, 10 ul volume; 12% nondenaturing PAGE; buffer, salt, pH and temperature not stated; conditions: protein: recombinant; tags: N-terminal His-TEV tag removed by TEV protease; chain copies: 2; label: 5' biotin
[2] = target: T1, CsrA; assay: EMSA; shift seen at 1.6 nM CsrA, increasing at 8 and 40 nM; LightShift chemiluminescent RNA EMSA kit per manufacturer, 10 ul volume; 12% nondenaturing PAGE; buffer, salt, pH and temperature not stated; conditions: protein: recombinant; tags: N-terminal His-TEV tag removed by TEV protease; chain copies: 2; label: 5' biotin

T1 sequence (Q9KUH3 whole entry): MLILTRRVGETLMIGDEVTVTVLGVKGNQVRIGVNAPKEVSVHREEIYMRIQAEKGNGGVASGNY

Binder	binding result [1]	binding result [2]
atpI RNA oligonucleotide (ssRNA) RNA: AAAAUUGUAACUUUUUGCGGUGUUUUCAUUGCAAUCAGUUGAUGCCACCGUAUAAUUUUCGCCAAUUUCCCAGUCCGAAAAAGCGGUUCGAGCUGUGGUGAUUACUAGAGGUAAGAAUAC	no binding	
varA RNA oligonucleotide (ssRNA) RNA: AAGUGUGGAGAUACAAGUUUGAUUAGUGUUUUCCUUGUAGAUGAUCACGAGCUGGUUCGCACAGGGAUACGACGUAUUAUUGAAGACGUCCGUGGAAUGAAAGUAGCAGGGGAAGCUGAC		binds
